B1: Nodal (ligand)
chain: HHLPDRSQLCRKVKFQVDFNLIGWGSWIIYPKQYNAYRCEGECPNPVGEEFHPTNHAYIQSLLKRYQPHRVPSTCCAPVKTKPLSMLYVDNGRVLLDHHKDMIVEECGCL

Columns and labels:
[1] = target: ALK4-Fc (Fc-fused ALK4 ligand-binding domain); assay: SPR; Biacore 3000, 25°C; about 500 RU of ALK4-Fc captured on anti-human IgG (Fc) CM5 chip, Fc-free Cripto-1 injected at varying concentrations; HBS/EPS with 0.5 M NaCl and 0.1% BSA, pH 7.4; KD = kd/ka
[2] = target: full-length Cripto-1-Fc (NEC-Fc), soluble full-length variant lacking the GPI anchor, fused to human IgG1 Fc (human); assay: SPR; Biacore 3000, 25°C; about 500 RU of Cripto-1-Fc construct captured on anti-human IgG (Fc) CM5 chip, Nodal injected at several concentrations; HBS/EPS (0.01 M Hepes, 0.5 M NaCl, 3 mM EDTA, 0.005% Tween 20, pH 7.4) with 0.1% BSA; 50 μL/min; fitted to a 1:1 or bivalent analyte model, KD = kd/ka; apparent
full-length Cripto-1-Fc (NEC-Fc), soluble full-length variant lacking the GPI anchor, fused to human IgG1 Fc (human), sequence (P13385 31-163, stated change not applied): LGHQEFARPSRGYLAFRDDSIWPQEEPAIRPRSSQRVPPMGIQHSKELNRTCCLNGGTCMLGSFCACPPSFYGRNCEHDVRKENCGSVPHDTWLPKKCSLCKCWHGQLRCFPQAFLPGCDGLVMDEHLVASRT

[3] = target: Cripto-1 E-Fc (EGF-like domain fused to human IgG1 Fc) (human); assay: as above
[4] = target: Cripto-1 NE-Fc (N-terminal and EGF-like domains fused to human IgG1 Fc) (human); assay: as above
[5] = target: Cripto-1 EC-Fc (EGF-like and CFC domains fused to human IgG1 Fc) (human); assay: as above

| Molecule | Kd [1] | koff [1] | kon [1] | Kd [2] | koff [2] | kon [2] | Kd [3] | koff [3] | kon [3] | Kd [4] | koff [4] | kon [4] | Kd [5] | koff [5] | kon [5] |
| --- | --- | --- | --- | --- | --- | --- | --- | --- | --- | --- | --- | --- | --- | --- | --- |
| Fc-free Cripto-1 (soluble Cripto-1 from which the Fc fragment had been proteolytically removed) (domain or fragment) | 79.9 nM | 0.00179 s⁻¹ | 22400 M⁻¹ s⁻¹ |  |  |  |  |  |  |  |  |  |  |  |  |
| B1 |  |  |  | 10.1 nM | 0.0116 s⁻¹ | 1.14e+06 M⁻¹ s⁻¹ | 27.8 nM | 0.00541 s⁻¹ | 195000 M⁻¹ s⁻¹ | 10.4 nM | 0.00104 s⁻¹ | 34100 M⁻¹ s⁻¹ | 14.3 nM | 0.000404 s⁻¹ | 28200 M⁻¹ s⁻¹ |

Source: PMC11751877
